Source: PMC9430589

Assays:
Assay in all cases: EMSA
Conditions in all cases: EMSA: 20 mM Tris-HCl pH 8.0, 1 mM MgCl2, 20 mM KCl, 10 mM Na phosphate pH 8.0, 10% glycerol, 500 nM heparin, 1 nM RNA, 37 C 1 h (PNPase: TMK, 50 mM Tris-HCl pH …)
[1] = biological target: T1, RhlB (DEAD box RNA helicase) (Deinococcus radiodurans R1) (UniProt Q9RXH8)
T1 sequence: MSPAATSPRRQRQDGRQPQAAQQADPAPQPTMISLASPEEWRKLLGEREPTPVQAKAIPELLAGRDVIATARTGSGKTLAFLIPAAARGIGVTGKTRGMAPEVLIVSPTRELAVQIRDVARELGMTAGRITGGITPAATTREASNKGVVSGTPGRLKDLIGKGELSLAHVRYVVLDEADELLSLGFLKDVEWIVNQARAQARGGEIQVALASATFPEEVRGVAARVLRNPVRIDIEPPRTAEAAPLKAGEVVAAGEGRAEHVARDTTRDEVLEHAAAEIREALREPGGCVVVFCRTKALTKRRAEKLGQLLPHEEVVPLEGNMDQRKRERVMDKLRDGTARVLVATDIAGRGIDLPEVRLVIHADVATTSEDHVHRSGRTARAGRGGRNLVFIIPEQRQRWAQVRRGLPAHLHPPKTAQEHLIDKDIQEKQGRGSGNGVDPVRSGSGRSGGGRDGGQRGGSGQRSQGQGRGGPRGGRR

[2] = biological target: T2, RpsA (ribosomal protein S1) (Deinococcus radiodurans R1) (UniProt Q9RSY6)
T2 sequence: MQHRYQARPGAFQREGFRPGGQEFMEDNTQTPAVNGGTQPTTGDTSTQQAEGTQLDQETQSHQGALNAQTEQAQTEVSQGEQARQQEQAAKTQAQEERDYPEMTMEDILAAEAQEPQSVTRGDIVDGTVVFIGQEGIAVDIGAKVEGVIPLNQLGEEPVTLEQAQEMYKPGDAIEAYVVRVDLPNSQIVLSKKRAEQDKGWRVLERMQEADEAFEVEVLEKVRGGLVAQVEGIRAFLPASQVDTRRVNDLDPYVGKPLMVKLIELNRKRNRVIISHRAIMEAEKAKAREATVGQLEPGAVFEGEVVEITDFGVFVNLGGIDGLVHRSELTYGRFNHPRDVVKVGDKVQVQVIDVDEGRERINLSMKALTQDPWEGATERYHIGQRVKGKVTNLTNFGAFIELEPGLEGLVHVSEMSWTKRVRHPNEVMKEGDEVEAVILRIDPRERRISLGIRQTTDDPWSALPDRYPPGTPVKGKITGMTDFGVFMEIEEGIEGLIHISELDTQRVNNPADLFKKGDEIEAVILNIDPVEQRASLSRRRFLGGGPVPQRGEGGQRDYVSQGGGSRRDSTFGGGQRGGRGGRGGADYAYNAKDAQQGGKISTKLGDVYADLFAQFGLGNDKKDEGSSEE

[3] = biological target: T3, Rho transcription termination factor (Deinococcus radiodurans R1) (UniProt P52153)
T3 sequence: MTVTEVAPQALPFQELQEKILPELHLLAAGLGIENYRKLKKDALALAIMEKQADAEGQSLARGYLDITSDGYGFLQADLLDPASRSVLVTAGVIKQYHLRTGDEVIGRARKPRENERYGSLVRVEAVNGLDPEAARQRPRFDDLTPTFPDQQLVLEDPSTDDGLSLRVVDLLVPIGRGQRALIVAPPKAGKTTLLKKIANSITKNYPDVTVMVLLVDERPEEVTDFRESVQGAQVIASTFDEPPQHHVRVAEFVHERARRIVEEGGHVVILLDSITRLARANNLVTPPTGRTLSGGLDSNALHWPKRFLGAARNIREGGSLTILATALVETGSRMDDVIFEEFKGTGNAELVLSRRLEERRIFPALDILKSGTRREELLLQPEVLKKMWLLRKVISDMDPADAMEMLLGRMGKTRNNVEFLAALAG

## NNNGNNNNNGNNNNNGNNNNNGNN [8-oxoG x2 24-mer (random N, degenerate)]
[1]; 8-oxoG at positions 16, 22
  Kd: 355 nM

## NNNGNNNNNGNNNNNGNNNNNGNN [8-oxoG x3 24-mer (random N, degenerate)]
[1]; 8-oxoG at positions 10, 16, 22
  Kd: 351 nM

## NNNGNNNNNGNNNNNGNNNNNGNN [8-oxoG x1 24-mer (random N, degenerate)]
[2]; 8-oxoG at position 16
  Kd: 1.71 µM
[1]; 8-oxoG at position 16
  Kd: 383 nM
[3]; 8-oxoG at position 16
  Kd: 1880 nM

## NNNGNNNNNGNNNNNGNNNNNGNN [8-oxoG x4 24-mer (random N, degenerate)]
[1]; 8-oxoG at positions 4, 10, 16, 22
  Kd: 341 nM

## NNNGNNNNNGNNNNNGNNNNNGNN [Ctrl 24-mer (random N, degenerate)]
[2]
  Kd: 5.44 µM
[1]
  Kd: 3010 nM
[3]
  Kd: 3940 nM
